Bridges are numbered along the chain shown (N, C = ends). Where no end group is shown, it is not given here.
T1: GIP receptor (UniProt P48546 22-466)
T1 sequence (looked up): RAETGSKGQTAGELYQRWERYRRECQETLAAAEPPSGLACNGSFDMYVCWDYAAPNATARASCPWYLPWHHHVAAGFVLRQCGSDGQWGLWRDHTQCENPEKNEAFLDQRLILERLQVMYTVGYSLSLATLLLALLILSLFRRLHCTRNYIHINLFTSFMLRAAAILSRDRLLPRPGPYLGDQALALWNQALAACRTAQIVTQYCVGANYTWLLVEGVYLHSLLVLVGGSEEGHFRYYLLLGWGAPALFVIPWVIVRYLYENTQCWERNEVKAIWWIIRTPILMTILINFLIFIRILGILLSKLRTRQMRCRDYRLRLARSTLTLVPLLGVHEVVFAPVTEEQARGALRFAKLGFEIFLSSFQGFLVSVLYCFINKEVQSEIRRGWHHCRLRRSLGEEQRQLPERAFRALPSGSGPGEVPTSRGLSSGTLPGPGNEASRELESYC

B1: mt-109 (peptide)
peptide: YSQGTFTSDYSKYLDEIHQKDFVNWLLAQ-NH2
B2: mt-110 (peptide)
peptide: YSQGTFTSDYSIYLDEIHQKDFVNWLLAQ-NH2
modifications: lactam 16-20; N-terminus assumed
SMILES: CC[C@H](C)[C@H](NC(=O)[C@H](CO)NC(=O)[C@H](Cc1ccc(O)cc1)NC(=O)[C@H](CC(=O)O)NC(=O)[C@H](CO)NC(=O)[C@@H](NC(=O)[C@H](Cc1ccccc1)NC(=O)[C@@H](NC(=O)CNC(=O)[C@H](CCC(N)=O)NC(=O)[C@H](CO)NC(=O)[C@@H](N)Cc1ccc(O)cc1)[C@@H](C)O)[C@@H](C)O)C(=O)N[C@@H](Cc1ccc(O)cc1)C(=O)N[C@@H](CC(C)C)C(=O)N[C@@H](CC(=O)O)C(=O)N[C@H]1CCC(=O)NCCCC[C@@H](C(=O)N[C@@H](CC(=O)O)C(=O)N[C@@H](Cc2ccccc2)C(=O)N[C@H](C(=O)N[C@@H](CC(N)=O)C(=O)N[C@@H](Cc2c[nH]c3ccccc23)C(=O)N[C@@H](CC(C)C)C(=O)N[C@@H](CC(C)C)C(=O)N[C@@H](C)C(=O)N[C@@H](CCC(N)=O)C(N)=O)C(C)C)NC(=O)[C@H](CCC(N)=O)NC(=O)[C@H](Cc2c[nH]cn2)NC(=O)[C@H]([C@@H](C)CC)NC1=O
B3: mt-111 (peptide)
peptide: HSQGTFTSDYSKYLDEIHQKDFVNWLLAQ-NH2
modifications: lactam 16-20; N-terminus assumed
SMILES: CC[C@H](C)[C@@H]1NC(=O)[C@@H](NC(=O)[C@H](CC(=O)O)NC(=O)[C@H](CC(C)C)NC(=O)[C@H](Cc2ccc(O)cc2)NC(=O)[C@H](CCCCN)NC(=O)[C@H](CO)NC(=O)[C@H](Cc2ccc(O)cc2)NC(=O)[C@H](CC(=O)O)NC(=O)[C@H](CO)NC(=O)[C@@H](NC(=O)[C@H](Cc2ccccc2)NC(=O)[C@@H](NC(=O)CNC(=O)[C@H](CCC(N)=O)NC(=O)[C@H](CO)NC(=O)[C@@H](N)Cc2c[nH]cn2)[C@@H](C)O)[C@@H](C)O)CCC(=O)NCCCC[C@@H](C(=O)N[C@@H](CC(=O)O)C(=O)N[C@@H](Cc2ccccc2)C(=O)N[C@H](C(=O)N[C@@H](CC(N)=O)C(=O)N[C@@H](Cc2c[nH]c3ccccc23)C(=O)N[C@@H](CC(C)C)C(=O)N[C@@H](CC(C)C)C(=O)N[C@@H](C)C(=O)N[C@@H](CCC(N)=O)C(N)=O)C(C)C)NC(=O)[C@H](CCC(N)=O)NC(=O)[C@H](Cc2c[nH]cn2)NC1=O
B4: mt-115 (peptide)
peptide: HSQGTFTSDYSKYLDEIHQKDFVNWLLAGGPSSGAPPPS-NH2
modifications: lactam 16-20; N-terminus assumed
SMILES: CC[C@H](C)[C@@H]1NC(=O)[C@@H](NC(=O)[C@H](CC(=O)O)NC(=O)[C@H](CC(C)C)NC(=O)[C@H](Cc2ccc(O)cc2)NC(=O)[C@H](CCCCN)NC(=O)[C@H](CO)NC(=O)[C@H](Cc2ccc(O)cc2)NC(=O)[C@H](CC(=O)O)NC(=O)[C@H](CO)NC(=O)[C@@H](NC(=O)[C@H](Cc2ccccc2)NC(=O)[C@@H](NC(=O)CNC(=O)[C@H](CCC(N)=O)NC(=O)[C@H](CO)NC(=O)[C@@H](N)Cc2c[nH]cn2)[C@@H](C)O)[C@@H](C)O)CCC(=O)NCCCC[C@@H](C(=O)N[C@@H](CC(=O)O)C(=O)N[C@@H](Cc2ccccc2)C(=O)N[C@H](C(=O)N[C@@H](CC(N)=O)C(=O)N[C@@H](Cc2c[nH]c3ccccc23)C(=O)N[C@@H](CC(C)C)C(=O)N[C@@H](CC(C)C)C(=O)N[C@@H](C)C(=O)NCC(=O)NCC(=O)N2CCC[C@H]2C(=O)N[C@@H](CO)C(=O)N[C@@H](CO)C(=O)NCC(=O)N[C@@H](C)C(=O)N2CCC[C@H]2C(=O)N2CCC[C@H]2C(=O)N2CCC[C@H]2C(=O)N[C@@H](CO)C(N)=O)C(C)C)NC(=O)[C@H](CCC(N)=O)NC(=O)[C@H](Cc2c[nH]cn2)NC1=O
B5: mt-116 (peptide)
peptide: YSQGTFTSDYSKYLDEIHQKDFVNWLLAGGPSSGAPPPS-NH2
B6: mt-118 (peptide)
peptide: YSQGTFTSDYSKYLDEIHQKEFVNWLLAQ-NH2
B7: mt-120 (peptide)
peptide: YSQGTFTSDYSKYLDEQAAKEFIAWLMNGGPSSGAPPPS-NH2
modifications: lactam 16-20; N-terminus assumed
SMILES: CC[C@H](C)[C@H](NC(=O)[C@H](Cc1ccccc1)NC(=O)[C@H](CCC(=O)O)NC(=O)[C@@H]1CCCCNC(=O)CC[C@H](NC(=O)[C@H](CC(=O)O)NC(=O)[C@H](CC(C)C)NC(=O)[C@H](Cc2ccc(O)cc2)NC(=O)[C@H](CCCCN)NC(=O)[C@H](CO)NC(=O)[C@H](Cc2ccc(O)cc2)NC(=O)[C@H](CC(=O)O)NC(=O)[C@H](CO)NC(=O)[C@@H](NC(=O)[C@H](Cc2ccccc2)NC(=O)[C@@H](NC(=O)CNC(=O)[C@H](CCC(N)=O)NC(=O)[C@H](CO)NC(=O)[C@@H](N)Cc2ccc(O)cc2)[C@@H](C)O)[C@@H](C)O)C(=O)N[C@@H](CCC(N)=O)C(=O)N[C@@H](C)C(=O)N[C@@H](C)C(=O)N1)C(=O)N[C@@H](C)C(=O)N[C@@H](Cc1c[nH]c2ccccc12)C(=O)N[C@@H](CC(C)C)C(=O)N[C@@H](CCSC)C(=O)N[C@@H](CC(N)=O)C(=O)NCC(=O)NCC(=O)N1CCC[C@H]1C(=O)N[C@@H](CO)C(=O)N[C@@H](CO)C(=O)NCC(=O)N[C@@H](C)C(=O)N1CCC[C@H]1C(=O)N1CCC[C@H]1C(=O)N1CCC[C@H]1C(=O)N[C@@H](CO)C(N)=O
B8: mt-124 (peptide)
peptide: HSQGTFTSDYSIYMDEIHQKDFVNWLLAQ-NH2
modifications: lactam 16-20; N-terminus assumed
SMILES: CC[C@H](C)[C@H](NC(=O)[C@H](CO)NC(=O)[C@H](Cc1ccc(O)cc1)NC(=O)[C@H](CC(=O)O)NC(=O)[C@H](CO)NC(=O)[C@@H](NC(=O)[C@H](Cc1ccccc1)NC(=O)[C@@H](NC(=O)CNC(=O)[C@H](CCC(N)=O)NC(=O)[C@H](CO)NC(=O)[C@@H](N)Cc1c[nH]cn1)[C@@H](C)O)[C@@H](C)O)C(=O)N[C@@H](Cc1ccc(O)cc1)C(=O)N[C@@H](CCSC)C(=O)N[C@@H](CC(=O)O)C(=O)N[C@H]1CCC(=O)NCCCC[C@@H](C(=O)N[C@@H](CC(=O)O)C(=O)N[C@@H](Cc2ccccc2)C(=O)N[C@H](C(=O)N[C@@H](CC(N)=O)C(=O)N[C@@H](Cc2c[nH]c3ccccc23)C(=O)N[C@@H](CC(C)C)C(=O)N[C@@H](CC(C)C)C(=O)N[C@@H](C)C(=O)N[C@@H](CCC(N)=O)C(N)=O)C(C)C)NC(=O)[C@H](CCC(N)=O)NC(=O)[C@H](Cc2c[nH]cn2)NC(=O)[C@H]([C@@H](C)CC)NC1=O
B9: mt-125 (peptide)
peptide: YSQGTFTSDYSIYMDEIHQKDFVNWLLAQ-NH2
modifications: lactam 16-20; N-terminus assumed
SMILES: CC[C@H](C)[C@H](NC(=O)[C@H](CO)NC(=O)[C@H](Cc1ccc(O)cc1)NC(=O)[C@H](CC(=O)O)NC(=O)[C@H](CO)NC(=O)[C@@H](NC(=O)[C@H](Cc1ccccc1)NC(=O)[C@@H](NC(=O)CNC(=O)[C@H](CCC(N)=O)NC(=O)[C@H](CO)NC(=O)[C@@H](N)Cc1ccc(O)cc1)[C@@H](C)O)[C@@H](C)O)C(=O)N[C@@H](Cc1ccc(O)cc1)C(=O)N[C@@H](CCSC)C(=O)N[C@@H](CC(=O)O)C(=O)N[C@H]1CCC(=O)NCCCC[C@@H](C(=O)N[C@@H](CC(=O)O)C(=O)N[C@@H](Cc2ccccc2)C(=O)N[C@H](C(=O)N[C@@H](CC(N)=O)C(=O)N[C@@H](Cc2c[nH]c3ccccc23)C(=O)N[C@@H](CC(C)C)C(=O)N[C@@H](CC(C)C)C(=O)N[C@@H](C)C(=O)N[C@@H](CCC(N)=O)C(N)=O)C(C)C)NC(=O)[C@H](CCC(N)=O)NC(=O)[C@H](Cc2c[nH]cn2)NC(=O)[C@H]([C@@H](C)CC)NC1=O

Legend:
Test in all cases: cell-based or functional assay
glucagon receptor = glucagon receptor (UniProt P47871 26-477, limits assumed)
GLP-1 receptor = GLP-1 receptor (UniProt P43220 24-463, limits assumed)
GIP receptor = target: T1, GIP receptor

Chain of glucagon receptor (P47871 26-477 limits assumed): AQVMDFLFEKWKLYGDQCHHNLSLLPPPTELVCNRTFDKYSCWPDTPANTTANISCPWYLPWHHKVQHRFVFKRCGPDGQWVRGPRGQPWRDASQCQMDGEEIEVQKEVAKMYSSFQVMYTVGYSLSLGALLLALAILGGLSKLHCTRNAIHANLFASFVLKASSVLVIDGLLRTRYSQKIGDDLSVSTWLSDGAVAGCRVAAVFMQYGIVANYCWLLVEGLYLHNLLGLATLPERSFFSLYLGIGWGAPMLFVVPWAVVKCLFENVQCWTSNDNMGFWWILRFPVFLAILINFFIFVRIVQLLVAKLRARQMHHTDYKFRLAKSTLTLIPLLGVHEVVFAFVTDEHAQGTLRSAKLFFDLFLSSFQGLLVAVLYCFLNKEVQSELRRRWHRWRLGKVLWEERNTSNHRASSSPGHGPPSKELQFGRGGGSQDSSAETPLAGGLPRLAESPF

Binder	EC50 (glucagon receptor) [nM]	relative activity (glucagon receptor) [%]	EC50 (GLP-1 receptor) [nM]	relative activity (GLP-1 receptor) [%]	EC50 (GIP receptor) [nM]	relative activity (GIP receptor) [%]
B1	0.13	76.9	3.86	0.78	0.658	6.99
B2	0.43	23.3	2.02	1.49	0.478	9.62
B3	0.27	85.2	0.66	10.6	6.26	0.78
B4	0.44	11.4	0.15	20	3.58	1.31
B5	0.787	18.7	3.8	1.07	0.617	7.62
B6	0.04	125	1.28	2.34	0.736	6.39
B7	0.074	259	0.399	13.4	2.62	1.81
B8	2.43	8.64	0.04	100	5.79	0.95
B9	5.74	9.06	1.26	3.17	0.275	19.6
